# Laboratory results as given in the nanobody polyreactivity screen of Harvey et al. (2022).
# Test: yeast display, Sf9 membrane polyspecificity reagent, FACS + sequencing; frameworks hold sequencing errors
# How it was run: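 In a synthetic yeast display library (Saccharomyces cerevisiae BJ5465), nanobody expression was induced with galactose for 36–48 hours. FACS gates were set low and high (top ~1%) using anti-HA fluorescence for expression and streptavidin fluorescence for binding of the Sf9 membrane reagent. Each polyreactivity label is drawn from the gate of origin.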
row,Sequence,polyreactivity (PSR sort gate)
1,QVQLVESGGGLVQAGGSLRLSCAASGFTFPAYTMGWYRQAPGKEREWVAAITSSGGNTYYADSVKGRFTISRDNAKNTVYLQMNSLKPEDTAVYYCATVSVRWPSNDHVRYDYWGQGTQVTVSS,low polyreactivity
2,QVQLVESGGGLVQAGGSLRLSCAASGFTFPENAMGWYRQAPGKERELVAAISYRGASTFYADSVKGRFTISRDNAKNTVYLQLISLKPEDTAVYYCATDPRIRYQGNPYDYWGQGTQVTVSS,high polyreactivity
3,QVQLVESGGGLVQAGGSLRLSCAASGFTFPEYDMGWYRQAPGKERELVAAINYSDGRTFYADSVKGRFTISRDNAKNTVYLQMNSLKPEDTAVYYCATDLSYDVWFFGPDYDYWGQGTQVTVSS,low polyreactivity
4,QVQLVESGGGLVQAGGSLRLSCAASGFTFPFNAMGWYRQAPGKERELVAAISQRTGRTYYADSVKGRFTISRDNAKNTVYLQMNSLKPEDTAVYYCNARTGTTGYGRYDYWGQGTQVTVSS,high polyreactivity
5,QVQLVESGGGLVQAGGSLRLSCAASGFTFPGNAMGWYRQAPGKERELVAAISRSGAGTYYADSVKGRFTISRDNAKNTDYLQMNRLKPEDTAVYYCNAVYSSWDYHYRYGYWGQGTQVTVSS,high polyreactivity
6,QVQLVESGGGLVQAGGSLRLSCAASGFTFPHYAMGWYRQAPGKERELVAAISWSGGNTYYADSVKGRFTISRDNAKNTVYLQMNSLKPEDTAVYYCAKGYSSHYWWAYDSWGQVTQVTVSS,high polyreactivity
7,QVQLVESGGGLVQAGGSLRLSCAASGFTFPHYAMGWYRQAPGKERELVAVISWSGSSTYYADSVKGRFTISRDNAMNTVYLQMNSLKPEDTAVYYCNTRKLYQVDYDYWGQGTQVTVSS,high polyreactivity
8,QVQLVESGGGLVQAGGSLRLSCAASGFTFPQYAMGWYRQAPGKERELFAAISKRSGGTRYADSGKGRFTISRDNSKNTVYLHMKSLKPEDTAVNYCINYGQVPGYFTLEYLGQGTQVTVSS,high polyreactivity
9,QVQLVESGGGLVQAGGSLRLSCAASGFTFPRYAMGWYRQAPGKERELVAAISYSGGRTYYADSVKGRFTISRDNAKNTVYFQMNSLKPEDTAVYYFATEASTKRYDYWGQGTQVSVSS,high polyreactivity
10,QVQLVESGGGLVQAGGSLRLSCAASGFTFPVNAMGWYRQAPGKERELVATINSGGSTNYADSVKGRFTISRDNAKNTVYLQMNSLKPEDTAVYYCAAAKRTADYASYWYVENDYWGQGTQVTVSS,low polyreactivity
11,QVQLVESGGGLVQAGGSLRLSCAASGFTFPVYTMGWYRQAPGKERELVAAISGSGASTYYADSVKGRFTISRDNAKNTVYLQMNSLKPEDTAVYYCAAPLWRNYYFGWMDYWGQGTQVTVSS,high polyreactivity
12,QVQLVESGGGLVQAGGSLRLSCAASGFTFPWNVMGWYRQAPGKEREFVAAISKSAGSTFYADSVKGRFTISRDNAKNTVYLQMNSLKPEDTAVYFCAKPRVPGVHVQEMYYWGQGTQVTVSS,low polyreactivity
13,QVQLVESGGGLVQAGGSLRLSCAASGFTFPWYAMGSSRQAPGKERELVASISYRGDSTYYADSVKGRFTISRDNAKKTVNLQMNSLKPEDTAVYYCNKRLASYYLPGFDYWGQGTQVTVSS,low polyreactivity
14,QVQLVESGGGLVQAGGSLRLSCAASGFTFPWYAMGWYRQAPGKERELVAVISSSGGSTYYADSVKGRFTISRDNAKNTVYLQMNSLKPEDTAVYYCNKDYYKRAYLFGYWGQGTQVTVSS,high polyreactivity
15,QVQLVESGGGLVQAGGSLRLSCAASGFTFPYNAMGWYRQAPGKERELVAAISSTGGITYYADSVKGRFTISRDNAKNTVYLQLNSLKPEDTAVYYCGWYDYWGLGTQVTVSS,low polyreactivity
16,QVQLVESGGGLVQAGGSLRLSCAASGFTFPYNGMGWYRQAPGKERELVASISWSGASTYYADSVKGRFTISRDNAKNTVYLQMNSLKPEDTAVYYCAADPGYYSWGSSQDDYWGQGTQVTVSS,low polyreactivity
17,QVQLVESGGGLVQAGGSLRLSCAASGFTFPYYAMGWYRPAPGKDRELVARISSGGSTHYADSVKGRFTISRDNAKNTVYVQMNSLKPEDTADYYCAREPWWGYHGEYDYWGQGTEVTVSS,high polyreactivity
18,QVQLVESGGGLVQAGGSLRLSCAASGFTFPYYAMGWYRPAPGKERELVAAISWIGDSTYYADSVKGRFTISRDNAKNTVYLQMNSLKPEDTAVYYCAAGYKWSIPNRDYDYWGQGTQVTVSS,low polyreactivity
19,QVQLVESGGGLVQAGGSLRLSCAASGFTFPYYAMGWYRQAPGKERELVATISNGGNTYYADSVKGRFTISRDNAKNTVYLQMNSLKPEDTAVYYCNAVVWAWMGYWGQGTQVTVSS,high polyreactivity
20,QVQLVESGGGLVQAGGSLRLSCAASGFTFPYYAMGWYRQAPGTERELVASNSRSGSTNYADSVKGRFTISRDNAKNTVYLQMNSLKPEDTAVYYCAAQLYSRGGYWGHGTQVTVSS,high polyreactivity
21,QVQLVESGGGLVQAGGSLRLSCAASGFTFQAYAMGWYRQAPGKVRELVAAINFSTGRTYYADSVKGRFTISRDNAKNTVYLQMNSLKPEDTAVYYCAADGSWTRSYDFDYWGQGTQVTVSS,high polyreactivity
22,QVQLVESGGGLVQAGGSLRLSCAASGFTFQGNAKGCYIQAPGKERELVGAISYDGGSTYYADSVKGRFTISRDNAKNTVYLQMNSLKPEDTAVYYCAAYVGTWYYYWGQGTQVTVSS,high polyreactivity

row,Sequence,polyreactivity (PSR sort gate)
1,QVQLVESGGGLVQAGGSLRLSCAASGFTFQGNAMGWYRQAPGKERELVAAISWSGGRTYYADSVKGRFTISRDNAKNTVYCQMNSLKPEDTAVYYCAIVYKDVSGDDYWGQGTQVTVSS,low polyreactivity
2,QVQLVESGGGLVQAGGSLRLSCAASGFTFQHNSMGWYRQAPGKERELVAAISLGGSTNYADSVKGRFTISRDNAKNSVYLQMNSLKPEDSAVYYCAAYDWRVLWGYDYWGQGTQVTVSS,low polyreactivity
3,QVQLVESGGGLVQAGGSLRLSCAASGFTFQINTMGWYRQAPGKERELVAAINYSGGSTYYADSVKGRFTISRDNAKNTDYLQMNSLKPEDTAVYYCATDHYRNPWRWYRYGYWGQGTQVTVSS,low polyreactivity
4,QVQLVESGGGLVQAGGSLRLSCAASGFTFQKYAMGWYRQAPGKERELVAAISSSGGRTYYADSVKGRFTISRDNAKNTVYLQMNSLKPEDTAVYYCNAVPGYVYDYQYWGQGTQVTVSS,high polyreactivity
5,QVQLVESGGGLVQAGGSLRLSCAASGFTFQKYAMGWYRQAPGKERELVAAISSSGGRTYYADSVKGRFTISRDNAKNTVYLQMNSLKPEDTAVYYCNAVPGYVYYYQYWGQGTQVTVSS,high polyreactivity
6,QVQLVESGGGLVQAGGSLRLSCAASGFTFQNYVMGWYRQAPGKERELVAAINSGGRTYYADSVKGRFTISRDNAKNTVYLQMNSLKPEDTAVYYCNAVQPATYKYRSHVIEYDYWGQGSQVTVSS,high polyreactivity
7,QVQLVESGGGLVQAGGSLRLSCAASGFTFQYYAMGCYRQAPGKERELVAAISARDGSTYYADSVKGRFTISRDNAKNTVYLQMNSLKPEDTAVYYCAARSNYRNAYAYYYWGQGTQVTVSS,high polyreactivity
8,QVQLVESGGGLVQAGGSLRLSCAASGFTFQYYAMGWYIQAPGKERELVATITTSGGNTYYADSVKGRFTISRDNAKNTVYLQMNSLKPEDTAVYYCAARRYRASSRGYGYWGQGTQVTVSS,high polyreactivity
9,QVQLVESGGGLVQAGGSLRLSCAASGFTFQYYAMGWYRQAPGKERELVAAINWSGGRTYYADSVKGRFTISRDNAKNTVYLQMNSLKPEDTAVYYCAATRSFSGGYGYVSYDYWGQGTQVTVSS,high polyreactivity
10,QVQLVESGGGLVQAGGSLRLSCAASGFTFRDNAMGWYRQAPGKERELVAAITRGGSTYYADSVKGRFTISRDNAKNTVYLQMNSLKPEDTAVYYCAKALYRREYSSGGYYRFDYWGQGTQVTVSS,high polyreactivity
11,QVQLVESGGGLVQAGGSLRLSCAASGFTFRDNAMGWYRQAPGKERELVAAITWDGGSTYYADSVKGRFTISRDNAKNTVYLQMYSLKPEDTAVYYCAASRYYPRYFKRYYYWGQGTQVTVSS,high polyreactivity
12,QVQLVESGGGLVQAGGSLRLSCAASGFTFRDNTMGWYRQAPGKERELVASISWSGGSTYYADSVKGRFTFSRDYAKNTVYLQMNSVKPEDTAVYYCAADDGSQYYFVSPHEYDYWGQGTQVTVSS,low polyreactivity
13,QVQLVESGGGLVQAGGSLRLSCAASGFTFRDYAMGWYRQAPGKERELVATITWRVGSTFYADSVKGRFTISRDNAKNTVYLQMNSLKPEDTAVYYCADEDSNVVAYDYWGQGTQVTVSS,low polyreactivity
14,QVQLVESGGGLVQAGGSLRLSCAASGFTFRDYVMGWYTQAPGKERELVAAISRSGASTYYADSVKGRFTISRDNAKNTVYLQMNSLKPEDTAVYYCAKTQAGYSPGTYDYWGQGTQVTVSS,high polyreactivity
15,QVQLVESGGGLVQAGGSLRLSCAASGFTFRENAMGWYRQAPGKERELVAAISKRGGTTYYADSVKGRFTISRDNAKNTVYLQMNSLKPEDTAVYYCAAESYSGPYAYEYWGQGTQVTVSS,high polyreactivity
16,QVQLVESGGGLVQAGGSLRLSCAASGFTFRENTMGWYRQAPGKERELVASISWSGGSTYYADSVKGRFTISRDNAKNTVYLQMNSLKPEDTAVYYCAATYAWLSKGYRGMDYWGQGTQVTVSS,low polyreactivity
17,QVQLVESGGGLVQAGGSLRLSCAASGFTFRINAMGWYRQAPGKERELVAAISWSGGSTYYADSVKGRFTISRDNAKNTVYLQMNSLKPEDTAVYYCNKVQSSRYRSQRTFQYGYWGQGTQVTVSS,high polyreactivity
18,QVQLVESGGGLVQAGGSLRLSCAASGFTFRIYTMGWYRQAPGKERELVAAIRWSDGTTYYADSVKGRFTISRDNAKNTVYLQMNSLKPEDTAVYYCAAYTYYYYYWGQGTQVTVSS,high polyreactivity
19,QVQLVESGGGLVQAGGSLRLSCAASGFTFRKKAMGWYRQAPGKERELVAAIRGSAGSTYYADSVKGRFTNSRDNAKITVYLQMNSLQQEDTAVYYCATGGYPSLWYGYGYWGQGTQVTVSS,low polyreactivity
20,QVQLVESGGGLVQAGGSLRLSCAASGFTFRKNAMGWYRHAPGKERELVAVISSSGGSTSYADSVKRRFTISRDNAKNTVYLQMNSLKPEDTAVYYCAAGSSRLRALYNYWGQGSQVTVSS,high polyreactivity
21,QVQLVESGGGLVQAGGSLRLSCAASGFTFRKNAMGWYRQAPGKERELVAAINSSGGSTYYADSVKGRFTISRDNAKNTVYLQMKSLKQEDTAVYSCNAVGRSLARPRGDYWGQGTQVTVSS,high polyreactivity
